# Results published in PMC4255732, “Structural and functional consequences of removing the N-terminal domain from the magnesium chelatase ChlH subunit of Thermosynechococcus elongatus” (Biochemical Journal, 2014).
# Legend:
# ΔN159ChlH = molecular target: T1, ΔN159ChlH (Thermosynechococcus vestitus, UniProt Q8DM52); assay: tryptophan fluorescence quenching; format: binding
# T1 construct: gene chlH; N-terminal head domain and linker (159 residues) deleted, starts at Met160; His6-tagged (pET9aHis6); E. coli; about 130 kDa
# MgCH (WT ChlH–I–D) = molecular target: T2, MgCH (WT ChlH–I–D) (Thermosynechococcus vestitus, UniProt Q8DM52); assay: continuous fluorescence assay of MgDIX formation at […] nm; format: biochemical; conditions: 8 μM DIX, 5 mM ATP, 15 mM MgCl2, 50 mM Mops/KOH pH 7.7, 45 °C, without Gun4
# T2 construct: with Magnesium-chelatase subunit ChlI; Magnesium-chelatase subunit ChlD
# [1] = molecular target: ΔN159ChlH, N-terminally truncated ChlH subunit of Thermosynechococcus elongatus (Thermosynechococcus elongatus); assay: FRET or BRET; 0.1 μM ChlH (WT or ΔN159) labelled with Atto 488, titrated with Gun4 labelled with Alexa Fluor 532; quenching of emission at 524 nm; 50 mM Tricine/NaOH, 0.3 M glycerol, 200 mM NaCl, pH 7.7 (methods; the legend says 7.9), 45°C; apparent Kd from eqn (1)
# [2] = molecular target: magnesium chelatase ChlH subunit of Thermosynechococcus elongatus, wild type (Thermosynechococcus elongatus); assay: as above
# [3] = molecular target: ΔN159ChlH, N-terminally truncated ChlH subunit of Thermosynechococcus elongatus (Thermosynechococcus elongatus)
# [4] = molecular target: magnesium chelatase ChlH subunit of Thermosynechococcus elongatus, wild type (Thermosynechococcus elongatus)
# T2 sequence (Q8DM52 1-1326): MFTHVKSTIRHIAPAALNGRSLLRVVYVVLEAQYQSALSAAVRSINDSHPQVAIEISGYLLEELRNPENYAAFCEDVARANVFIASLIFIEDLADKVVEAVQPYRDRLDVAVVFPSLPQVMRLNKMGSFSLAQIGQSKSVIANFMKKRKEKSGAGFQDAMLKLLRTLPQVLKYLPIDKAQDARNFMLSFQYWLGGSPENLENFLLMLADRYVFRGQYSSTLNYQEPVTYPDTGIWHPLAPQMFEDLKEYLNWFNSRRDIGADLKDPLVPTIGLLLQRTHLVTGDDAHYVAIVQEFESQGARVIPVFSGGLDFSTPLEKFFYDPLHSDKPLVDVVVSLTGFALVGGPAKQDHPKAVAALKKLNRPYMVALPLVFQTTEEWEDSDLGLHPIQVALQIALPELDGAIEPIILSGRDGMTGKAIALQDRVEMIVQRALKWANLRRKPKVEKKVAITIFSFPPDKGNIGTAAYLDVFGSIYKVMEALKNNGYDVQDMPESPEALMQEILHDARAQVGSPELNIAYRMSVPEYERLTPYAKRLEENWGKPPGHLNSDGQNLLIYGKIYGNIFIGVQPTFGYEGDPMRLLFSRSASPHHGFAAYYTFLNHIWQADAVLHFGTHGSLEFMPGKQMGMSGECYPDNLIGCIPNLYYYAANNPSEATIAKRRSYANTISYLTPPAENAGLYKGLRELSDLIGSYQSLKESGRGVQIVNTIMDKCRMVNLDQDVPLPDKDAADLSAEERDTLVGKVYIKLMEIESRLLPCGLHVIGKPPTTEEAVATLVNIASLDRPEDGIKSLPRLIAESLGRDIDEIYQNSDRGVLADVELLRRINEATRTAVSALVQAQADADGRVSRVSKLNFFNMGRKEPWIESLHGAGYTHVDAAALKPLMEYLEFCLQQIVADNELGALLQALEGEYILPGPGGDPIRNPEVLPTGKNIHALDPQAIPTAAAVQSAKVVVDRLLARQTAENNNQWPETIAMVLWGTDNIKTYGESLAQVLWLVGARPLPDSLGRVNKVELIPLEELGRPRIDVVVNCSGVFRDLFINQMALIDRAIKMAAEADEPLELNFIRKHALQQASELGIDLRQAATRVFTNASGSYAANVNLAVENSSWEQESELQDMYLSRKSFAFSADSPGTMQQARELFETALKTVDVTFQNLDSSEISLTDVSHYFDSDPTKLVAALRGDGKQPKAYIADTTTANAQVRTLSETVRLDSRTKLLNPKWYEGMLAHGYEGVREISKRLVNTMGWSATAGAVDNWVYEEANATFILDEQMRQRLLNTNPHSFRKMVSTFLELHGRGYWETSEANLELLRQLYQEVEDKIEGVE
# T2 sequence (Q8DIS0 13-367 partner): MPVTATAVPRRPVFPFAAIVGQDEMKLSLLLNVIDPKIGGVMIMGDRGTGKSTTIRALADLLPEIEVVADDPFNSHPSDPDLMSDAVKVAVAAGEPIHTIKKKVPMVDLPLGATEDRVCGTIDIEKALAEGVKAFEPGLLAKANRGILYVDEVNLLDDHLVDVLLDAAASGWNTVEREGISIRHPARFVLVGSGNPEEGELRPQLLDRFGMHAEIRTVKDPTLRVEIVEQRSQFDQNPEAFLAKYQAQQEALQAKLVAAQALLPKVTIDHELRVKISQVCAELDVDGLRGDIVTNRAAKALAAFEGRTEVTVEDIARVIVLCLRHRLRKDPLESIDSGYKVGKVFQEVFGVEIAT
# T2 sequence (Q8DJ18 1-668 partner): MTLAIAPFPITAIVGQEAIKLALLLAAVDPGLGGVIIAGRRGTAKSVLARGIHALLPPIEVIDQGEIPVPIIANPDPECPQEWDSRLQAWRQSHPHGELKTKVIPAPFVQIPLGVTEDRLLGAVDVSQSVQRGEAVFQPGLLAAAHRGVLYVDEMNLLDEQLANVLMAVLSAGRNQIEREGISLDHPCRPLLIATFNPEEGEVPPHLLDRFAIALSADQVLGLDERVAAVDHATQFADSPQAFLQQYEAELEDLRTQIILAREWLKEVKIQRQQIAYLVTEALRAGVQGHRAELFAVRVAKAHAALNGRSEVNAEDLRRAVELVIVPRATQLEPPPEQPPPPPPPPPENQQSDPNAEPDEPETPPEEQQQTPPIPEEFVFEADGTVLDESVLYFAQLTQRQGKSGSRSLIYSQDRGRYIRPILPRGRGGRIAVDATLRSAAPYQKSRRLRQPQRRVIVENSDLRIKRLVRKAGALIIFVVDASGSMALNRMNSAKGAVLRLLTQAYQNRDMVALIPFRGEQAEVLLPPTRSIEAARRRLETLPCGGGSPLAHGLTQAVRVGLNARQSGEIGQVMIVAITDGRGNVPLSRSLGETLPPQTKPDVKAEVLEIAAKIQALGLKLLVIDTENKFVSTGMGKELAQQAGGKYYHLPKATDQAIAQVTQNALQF
# T1 sequence (Q8DM52 entry or part of it, stated change not applied): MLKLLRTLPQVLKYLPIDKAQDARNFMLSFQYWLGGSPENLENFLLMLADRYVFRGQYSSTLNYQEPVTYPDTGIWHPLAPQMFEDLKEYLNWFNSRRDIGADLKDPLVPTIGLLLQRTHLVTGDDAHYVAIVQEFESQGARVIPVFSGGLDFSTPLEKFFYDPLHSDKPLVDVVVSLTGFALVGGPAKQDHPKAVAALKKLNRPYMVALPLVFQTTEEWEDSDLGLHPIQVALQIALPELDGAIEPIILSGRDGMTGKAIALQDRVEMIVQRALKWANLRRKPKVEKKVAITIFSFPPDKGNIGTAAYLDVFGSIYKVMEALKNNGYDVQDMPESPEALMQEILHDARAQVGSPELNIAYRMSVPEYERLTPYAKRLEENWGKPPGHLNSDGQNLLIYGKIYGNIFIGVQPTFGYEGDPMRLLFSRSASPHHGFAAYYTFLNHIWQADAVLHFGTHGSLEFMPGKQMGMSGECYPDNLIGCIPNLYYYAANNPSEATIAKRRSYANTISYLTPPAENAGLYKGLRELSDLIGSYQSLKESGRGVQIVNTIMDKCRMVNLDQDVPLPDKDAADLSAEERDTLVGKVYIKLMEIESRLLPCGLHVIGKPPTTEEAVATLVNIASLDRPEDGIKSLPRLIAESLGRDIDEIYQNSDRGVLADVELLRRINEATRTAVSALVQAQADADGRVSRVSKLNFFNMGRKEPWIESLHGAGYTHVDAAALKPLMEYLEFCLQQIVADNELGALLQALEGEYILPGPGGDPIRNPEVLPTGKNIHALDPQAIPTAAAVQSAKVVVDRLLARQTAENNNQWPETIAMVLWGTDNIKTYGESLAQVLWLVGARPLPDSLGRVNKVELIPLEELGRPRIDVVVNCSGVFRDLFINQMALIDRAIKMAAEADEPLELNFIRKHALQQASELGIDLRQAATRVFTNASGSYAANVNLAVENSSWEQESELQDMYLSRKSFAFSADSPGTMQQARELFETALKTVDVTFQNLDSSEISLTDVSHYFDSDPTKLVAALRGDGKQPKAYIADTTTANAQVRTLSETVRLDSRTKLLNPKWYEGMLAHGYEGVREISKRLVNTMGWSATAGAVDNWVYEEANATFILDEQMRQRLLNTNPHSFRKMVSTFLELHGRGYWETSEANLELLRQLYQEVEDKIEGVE
Kd (ΔN159ChlH) [nM],Kd [1] [nM],Kd [2] [nM],"Kapp from steady-state magnesium chelatase rates against [Gun4] (0.1 μM ChlD, 0.2 μM ChlI, 0.4 μM ΔN159ChlH, 45°C, eqn (2), nd held at 0.4) [3] [µM]","Kapp from steady-state magnesium chelatase rates against [Gun4] (0.1 μM ChlD, 0.2 μM ChlI, 0.4 μM ChlH, 45°C, eqn (2), nd held at 0.4) [4] [µM]",Compound,continuous fluorescence assay of MgDIX formation at 580 nm (MgCH (WT ChlH–I–D))
1060 ± 90,–,–,–,–,CC1=C(CCC(=O)O)c2cc3nc(cc4[nH]c(cc4C)cc4[nH]c(cc1n2)cc4C)C(C)=C3CCC(=O)O [DIX],assayed for in vitro MgCH activity by continuously monitoring fluorescence from the MgDIX product
–,16,9,0.05,0.39,Gun4 protein of Thermosynechococcus elongatus (natural protein),–
